This note sets out measurements from patent publication US20130231277A1 (NEW YORK UNIVERSITY, published 2013).

In experiment [1] the target is FGFR1c endogenously expressed by HEK293 cells transiently transfected with murine βKlotho (UniProt P11362 22-822). The experiment is described as follows: cell-based or functional assay.
For experiment [2], the target named is T1, ectodomain of murine βKlotho (F53 to L995 of SEQ ID NO: 218) with a C-terminal FLAG tag (murine, UniProt Q99N32 53-995).
T1 construct: Expressed in HEK293 cells and purified from culture media; also called βKlotho ectodomain; not shown: C-terminal FLAG tag
T1 sequence: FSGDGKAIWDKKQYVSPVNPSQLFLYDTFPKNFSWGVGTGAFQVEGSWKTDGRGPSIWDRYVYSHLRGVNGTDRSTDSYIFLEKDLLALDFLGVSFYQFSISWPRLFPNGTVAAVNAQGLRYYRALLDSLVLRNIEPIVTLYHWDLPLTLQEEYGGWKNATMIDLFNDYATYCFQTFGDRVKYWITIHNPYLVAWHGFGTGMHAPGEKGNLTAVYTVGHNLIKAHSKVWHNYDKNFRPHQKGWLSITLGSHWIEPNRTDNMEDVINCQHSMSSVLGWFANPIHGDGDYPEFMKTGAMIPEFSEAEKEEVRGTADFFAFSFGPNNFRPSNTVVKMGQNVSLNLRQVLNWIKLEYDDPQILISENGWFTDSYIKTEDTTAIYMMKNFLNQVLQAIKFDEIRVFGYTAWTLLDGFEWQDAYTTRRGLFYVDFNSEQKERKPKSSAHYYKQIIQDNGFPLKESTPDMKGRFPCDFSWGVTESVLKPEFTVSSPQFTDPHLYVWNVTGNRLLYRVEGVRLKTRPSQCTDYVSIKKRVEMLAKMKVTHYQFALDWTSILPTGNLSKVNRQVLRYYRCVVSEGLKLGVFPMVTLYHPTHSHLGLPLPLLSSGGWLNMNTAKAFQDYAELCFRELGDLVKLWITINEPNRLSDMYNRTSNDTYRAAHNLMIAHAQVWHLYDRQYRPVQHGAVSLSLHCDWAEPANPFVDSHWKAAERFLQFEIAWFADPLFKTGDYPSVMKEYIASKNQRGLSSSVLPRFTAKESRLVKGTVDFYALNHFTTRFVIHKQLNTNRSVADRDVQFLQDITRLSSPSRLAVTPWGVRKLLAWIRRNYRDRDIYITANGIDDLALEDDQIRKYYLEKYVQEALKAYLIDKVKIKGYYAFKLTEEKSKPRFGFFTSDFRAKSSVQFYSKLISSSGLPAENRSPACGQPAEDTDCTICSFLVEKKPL
The experiment can be described thus: SPR competition; FGF21 immobilized, fixed βKlotho ectodomain mixed with increasing FGF21 (FIG. 7A). The method, then: Increasing concentrations of FGF21 were mixed with a fixed concentration of βKlotho ectodomain, and the mixtures were passed over a FGF21 chip. […] Increasing concentrations of FGF21²⁹⁻¹⁹⁰/FGF19¹⁹⁷⁻²¹⁶ chimera were mixed with a fixed concentration of βKlotho ectodomain, and the mixtures were passed over a FGF21 chip. […] The figure was created from the data shown in FIGS. 7A-B, which are representative of two independent experiments.
SPR experiments were performed on a Biacore 2000 instrument (Biacore AB), and all the protein-protein and protein-peptide interactions were studied at 25° C. in HBS-EP buffer (10 mM HEPES-NaOH, pH 7.4, 150 mM NaCl, 3 mM EDTA, 0.005% (v/v) polysorbate 20). Proteins were immobilized by amine coupling on flow channels of research grade CM5 chips (Biacore AB). Proteins were injected over a CM5 chip at a flow rate of 50 μl min⁻¹, and at the end of each protein injection (180 s), HBS-EP buffer (50 μl min⁻¹) was flowed over the chip to monitor dissociation for 180 s. In experiments where βKlotho binding to FGFR was analyzed, the chip surface was then regenerated by injecting 50 μl of 2.0 M NaCl in 10 mM sodium/potassium phosphate, pH 6.5. In experiments where α/βKlotho binding to FGF19/21/23 or binding of the FGFR1c-βKlotho complex to FGF21 was studied, 2.0 M NaCl in 10 mM sodium acetate, pH 4.5 was used for chip regeneration. […]

Chain of FGFR1c endogenously expressed by HEK293 cells transiently transfected with murine βKlotho (P11362 22-822): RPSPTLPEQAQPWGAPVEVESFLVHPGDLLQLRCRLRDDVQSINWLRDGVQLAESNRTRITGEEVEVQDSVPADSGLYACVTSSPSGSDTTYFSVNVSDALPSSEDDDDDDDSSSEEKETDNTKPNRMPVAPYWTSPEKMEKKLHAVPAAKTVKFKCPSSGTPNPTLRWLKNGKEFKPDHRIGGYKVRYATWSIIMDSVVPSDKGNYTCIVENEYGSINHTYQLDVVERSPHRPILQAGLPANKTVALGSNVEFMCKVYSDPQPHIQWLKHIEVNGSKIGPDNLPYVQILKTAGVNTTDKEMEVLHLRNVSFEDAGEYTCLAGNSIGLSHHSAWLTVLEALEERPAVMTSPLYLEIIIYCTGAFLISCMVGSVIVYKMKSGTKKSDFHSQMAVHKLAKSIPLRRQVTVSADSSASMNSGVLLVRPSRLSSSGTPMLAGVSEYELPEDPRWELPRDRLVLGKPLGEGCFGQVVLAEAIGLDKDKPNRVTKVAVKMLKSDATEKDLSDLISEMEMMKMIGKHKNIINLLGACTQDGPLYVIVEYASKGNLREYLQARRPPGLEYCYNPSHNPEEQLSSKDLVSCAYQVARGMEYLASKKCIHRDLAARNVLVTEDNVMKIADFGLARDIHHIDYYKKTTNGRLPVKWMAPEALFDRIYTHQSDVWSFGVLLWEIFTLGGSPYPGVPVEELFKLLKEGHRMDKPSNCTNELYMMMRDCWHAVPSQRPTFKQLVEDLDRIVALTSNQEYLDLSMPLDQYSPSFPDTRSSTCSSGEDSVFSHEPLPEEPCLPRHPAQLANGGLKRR

B1: human FGF21, secreted bioactive form (H29 to S209 of SEQ ID NO: 100) (ligand)
chain: HPIPDSSPLLQFGGQVRQRYLYTDDAQQTEAHLEIREDGTVGGAADQSPESLLQLKALKPGVIQILGVKTSRFLCQRPDGALYGSLHFDPEACSFRELLLEDGYNVYQSEAHGLPLHLPGNKSPHRDPAPRGPARFLPLPGLPPALPEPPGILAPQPPDVGSSDPLSMVGPSQGRSPSYAS
notes: Used both immobilized on the SPR chip and in solution; also called wild-type FGF21; native FGF21
Consider B1, for which the “Induction of Egr1 protein expression (immunoblot, HEK293 cells co-expressing FGFR1c and βKlotho)” value in experiment [1] was > 3 fold greater concentration than the 30 ng ml^-1 of the Q104M mutant. Besides, in experiment [2], the binding result is reported as “binds”.
